In US20250197482A1 one finds % neutralization, single point, Env-pseudotyped virus on TZM-bl and ELISA binding data, which are given here for 1 substance.

The target in test [1] is HIV-1 Env of strain WITO.33 (Env-pseudotyped virus) (HIV-1).
Test [2] deals with CAP256 wk34c80 (HIV-1).
Test [3] addresses 426C-WITO soluble Env trimer (clade B), stabilized in the prefusion-closed conformation (HIV-1). Kind of test: ELISA, lectin-captured trimer, expression supernatant, single point, OD 450 nm, column 426c-WITO-degly3. In general terms: ELISA stands for enzyme-linked immunosorbent assay.
In test [4] the target is JRFL soluble Env trimer (clade B), stabilized in the prefusion-closed conformation (HIV-1). Kind of test: ELISA, lectin-captured trimer, expression supernatant, single point, OD 450 nm.
Test [5] deals with K169V variant of CAP256 soluble Env trimer (HIV-1). The description is as above.
In test [6] the target is CAP256 soluble Env trimer (clade C), stabilized in the prefusion-closed conformation (HIV-1). Described as above.

As to VRC01 (antibody), the % neutralization, single point, Env-pseudotyped virus on TZM-bl in test [1] was found to be 0%; in test [2] it was 100%. The ELISA binding in test [3] came to 2.53; in test [4], 2.29; in test [5], 2.65; in test [6], 2.31.
